Experimental data: paper PMC7094522

Target: Fluorogenic peptide Dabcyl-…-Edans, EV71 polyprotein autoprocessing site between 3B and 3C (human enterovirus 71)

## EV71 3C protease mutant H133G (enzyme)
  Km of cleavage of the fluorogenic 3B-3C peptide (protease assay, 4 μM protease): 25.9 µM
